Experimental data reported in the DeepSol protein solubility set.

assay: soluble on expression in E. coli; label from the status in PepcDB or PDB records

| Sequence | soluble on expression in E. coli |
| --- | --- |
| QNSWDSLQPDREQVIASLNVVELLKRHHYNKPPLNDERSAKIYDSYLKMLDPARMYFTAGDIAEFDRWRNRFDDFLKSGDLDPGFVIYKRHLDRLKGRLDYALAMLDKGVDKIDFSVDESLLIDREKAPWAKDTAELDDLWRKKVKDEVLRLKITGKDDKAIQEQLTKRYKNQLSRLKQTRSEDIFQAYINAFAQSYDPHTQYLSPDNAENFDINMSLSLEGIGAVLQSDNDYVKVVRLVPAGPAAKSKQIATSDKIIGVAQGKGEMVDVVGWRLDEVVKLIRGPKGSQVRLEVIPASNAPNDQTSKIVAITREAVKLEDQAAKKSIIKVDHEGRSYKLGVIDLPAFYLDFKAYRAGDPNYKSTTRDVKKLVAELQKDKVDGIVLDLRNNGGGSLQEATELTGLFIDQGPTVLVRNSDGRVDVLNDDEGKAFYTGPLAVLVNRLSASASEIFAGAMQDYHRALILGGQTFGKGTVQTIQPLNHGELKLTLAKFYRVSGQSTQHQGVIPDISYPSIVDDKEIGESALPDSMPWDTIRPVVKDEANPFKPFLAQLKAQHDARTENNADFVYARERLALAQELMKEKTVSLNEAKRRAQQTSIENRQLAMENALRKSKGQEPLKELKREDENALPEEDDKTKPQDDAYLTESGHILLDYLNLNSAVAK | not soluble |
| MSLKSIILEDANAKLREDAHTFVFDGHAGVKGRVDFARLGSNNPIEDDWDLKIAKGVGGTKTLYAGVYDGHAGWATSQVLRNALVPYVSGALSSLTPTTSTELVDDAIQKAFVRLDNRIFDTALKAVESGLDQGTASVISAVAPAIAGSCALLTMYEPVTSTLRTAVAGDSRAVRGAWSSNANKYETDILSIDQTGFNQLEVERLDKEHPGQLHSMLNLDSGRLFGLAVTRAFGDHRLKWPAKVIRKVQDDYYGTPPRPNYTTPPYLTARPEVTTRKIQTEDFVILGSDGLWDMISNEDAVTCISRWLSAKKSGKPEPFKETKFEGKLEDGWQATPEHHVIEDLDNAAVCLVKNAFGGSRRGLFLGAMTTYAPMSRNVRDDITVQIIFFKDPYEKEGHHHHHH | soluble |
| NEVRFVVFHAVDTSEKQILVRSLEEAENKFAKLTQLLPDGLLLIEDDTIISANPASARLLGLNSPHELLGEELSRLFIDENTKKVFSHRLSTLISDKPFVCLTSARCGFERKVQLHADSTAILGSESQIILIQDA | not soluble |
| MSLANILAIDDSGLMQAFWVRILSRSQHNVITVSSGDEMRGVLATMNPQLIFLDLSFPGENGFELLQHIRSYQHCLEIPVIAVSGYAGEDTRQACREAGFTDFLAKPFSLAELRGMLARYLDHATEGHHHHHH | not soluble |
| ISGFYMSIMRDITEKRSMELQLFKSEERFREIFENAMDAIIIWSNDGRIVKANQSACKIFELPMNLLLKRKLCDFLVDSQQKYSITKRKYAKYGEIREELLFQMGNGQFKELEFTSKRTILEN | not soluble |
| MGSDKIHHHHHHMTVVEPNSDQKLDTAVATVLHEISSFQSFAVERDLEDVIERISKVFRISDIDAFRYYINKSISGLGKIYPLFNLEEVKEIDVNGYDEPVIVKLSDDNYYTTNIKLLANEVDSIAIRLAQLMGKKISTSDPLARGTLNNREVSITFGTEISPKGSSIRIARNDSGYDLKKFVESNGFSLESISYLKIAIENSKSIVIIGPHTELKYSALLFLMDLVDKEKKITYIGEKIPSRSPGNYIFMKTKEKSIFSSQIDRVSLINTAMRQRPDYIVIDTIEVVDLPSVIQAITTGHPTFTSIDIDSVSALVSAFSDSALDLGRDMVSVIDIVIEISESSDRISSIYEFDRFEHNDVLYDLVFSIDKTTEKLRYNGFSPMFRSMSNAMGKDDFHRYLENVRKITSELIENGLS | not soluble |
| GPGSMSGIKIEEVISTTKKERVAAHSHVKGLGLNPDGTTKHIADGFVGQEKAREAAGIAVELIRSKKMAGRALLFAGPPGTGKTALALGIAKELGPKVPFCPMVGSEVYSAEVKKTEVLMENFRRAIGLRIKENKEVYEGEVTELRAEETDNPLGGYGKSISHVIITLKSQKGSKLLKLDAAIYESLEKEKVSVGDVIYIEASSGAVKRVGRSDAYIGDHDLEADEYVPIPKGDVHKKKEVIQDVTLHDLDMANAKPSQGQDALSIVSSMMRHKKTEVTEKLRQEINKVVNKYIDQGVAELVPGVLFIDEVHMLDIECFTYLNKALESTLAPVVIFATNRGSCRIRGTEIRAPHGMPTDLLDRLLIIRTMNYDVSEITSIVEIRAHVEGVKISEAALTKLGIIGESTSLRFVVQLLTPALIIAETNGREMLEEEDVDLVAELFKDGKASARQLQDHAEEYVYQ | soluble |
| MPSYKLSYFPVRGLAESARLLFHLAGVPFEDERVNFLDDTWEKMKGKTPMGQLPVLTVDDFEIPQSAAINRYLARKFGFAGKTPEEEAWVDAVVDQFKDFFAEFRKLVIAKRVGKSAEELEKLTAEVIKPAMDVYFKVLNGLLEKSKSGYLIGDSITFADLYIADNIQTLKKYGLLEASGEQPKLAAHLEKVYSHPNLKSYIASRPVTEI | not soluble |
| MGSDKIHHHHHHMKQLLAYCLSIILCVSFTGCMENYLDLYPEDKITSASFPENESDIKLLLNGVYAQLREKEVYNQGLFGFGITDGATPNAFNWGTDEVFNKLGAGRLSSSDGGVVTYRWKRCYEIISRANYLLACMDLVDLSEEAKAKYSGETHFLRGLAYSVLAETYGGVPIILTDISTEEARSLKRASLEETWQQALDDYEVAITNLGVDAPEPGRATKGAALGMKMRAYLYQGKYKEVLSCVEQIDALKKYGLFHSYEGLFDPANENNKEVLFDIQYIEGENSQGSYIDQYCGTGTGSWTRGSRYVPTDDLVAAYETIDGSPVDPENPYENRDPRLGFTAVLPGSYFLGYRFPNYLYPGGAFNHAGNRLKHLSTRKYRIQDESKLPPSGQSYINDIILRYADVLLSKAEAIIETNGNVADAIAILNRIRTERDDVKISLLPTSMSREEAREKVRHERRIELALEGRYWSDVKRWKIGKELYPMIIKDHEGSVIETKFPNGYLEYYDLLPIPDSERSLNPNLDQNPGW | not soluble |
| SREEMSLGCQEAFEIFKRDHADSVTIDDNKQILKQRFSEAKALGESINEARSKIGHLKEEITQRHIQQVALGISENMAVPLMPDQQEEKLRSQLEEEKRRYKTMFTRLKALKVEIEHLQLLMDKAKVKLQKEFEVWWAEEATNLQVNSPAVNSLDHTKPFLQTSDSQHEWSQLLSNKSSGGWEVQDQGTGRFDVCDVNARKILPSPCPSPHSQKQSSTSTPLEDSIPKRPVSSIPLTGDSQTDSDIIAFIKARQSILQKQCLGSN | soluble |
| MKFVNFDEYKQLVDYFRNRLNPNYSSPTMLFIISITGMRASEAFGLVWDDIDFNNNTIKCRRTWNYRNKVGGFKKPKTDAGIRDIVIDDESMQLLKDFREQQKTLFESLGIKPIHDFVCYHPYRKIITLSALQNTLDHALKKLNISTPLTVHGLRHTHASVLLYHGVDIMTVSKRLGHASVAITQQTYIHIIKLEHHHHHH | not soluble |
| MAGHSIPHFQNDGGHSVIEIGVKEFMCTGASVPFDHPHIFIDMGDDNEKVCSYCSTLYRYNPSLKAEQTNPPGCVFHVKAA | not soluble |
| MSLRPDMSRLTMIRFLTEIDYPPFNFTGADGNPAGFNVDLARALCDEIKITCTVQMRKFETLLDALASNRGDAIIASLAVTPQTRTKLDFTDPYYRTPARFVARKDAVMPEMRPEFLEGRKVGAVAGSAHEAYLKAMFTDAELHSYPNAEALRAALKRGEVDFIFGDAISLAFWINGTDSENCCAFSGAPFLESRYFGEGVGIAVRKGNDTLRQALNWALFRVWEKGQYTDLWLRYFSVSEGHHHHHH | soluble |
| MIYFQTKDDAFFTLASEQEADKPHREHLLDLTLGKGRKRKSSEVLRRGRLAACGLSFVVKNTLGELVGSVRLWHVQFNKGHNEIQHALLLGPLAVAAECSGIGIGSALMRHAIATAKKMGYGAIFLVGDCAFYQRFGFSSSLTKNLAMPGPYEKHRFQALELIPHYLTSCHGILTPSGELEDWNSFQHHKVA | not soluble |
| MGSDKIHHHHHHMELFRLHYFLELCKVKQFTKAAENLAISQAALSKQIKILEATLGAELFNRQGQTTTLTPAGLILEKYCWRITNELVSIEEELKEINHSSNHIYVATYLCDLEYKLNDLLMTTLTDRSSNLQVHTIITENILQSLETMDADFGISFADLPLPEHIGKIDLFTANYQFILRNDHPALAKATTEEILKELTMYPFVRLNTEFSEQNKLTNWLDTTFSNFSPEKVIQVDTLSLITHLVSHSDSFAIVPEYTNIQLLDNSIHTLTYQELPKRNMAVYYLKERYMSRQLQQLLAECQKQFQ | not soluble |
